PMC13276077

Key:
[1] = target: MeCP2 full-length, e2 isoform;histone octamer (Homo sapiens;, UniProt P51608;P0C0S8;P62807;P68431;P62805 1-486;2-130;2-126;2-136;2-103, |H2B T115C;H3.1 C96S;C110A); assay: EMSA; 20 mM HEPES pH 7.5, 75 mM NaCl, 125 mM KCl, 50 uM EDTA, 2.5 mM beta-mercaptoethanol, 5% glycerol, BSA, 1.58 uM 47 bp competitor DNA (nucleosome assays); absent w
[2] = target: MeCP2 full-length, e2 isoform;histone octamer, tailless H3 (Homo sapiens;Homo sapiens, UniProt P51608;P0C0S8;P62807;P68431;P62805 1-486;2-130;2-126;26-136;2-103, |H3.1 del1-24;A25C;C96S;C110A); assay: EMSA; H3-tailless histone octamer; 20 mM HEPES pH 7.5, 75 mM NaCl, 125 mM KCl, 50 uM EDTA, 2.5 mM beta-mercaptoethanol, 5% glycerol, BSA, 1.58 uM 47 bp competitor DNA (nucleosome assays); absent w
[3] = target: MeCP2 full-length, e2 isoform;histone H1.0;histone octamer (Homo sapiens;Homo sapiens;, UniProt P51608;P07305;P0C0S8;P62807;P68431;P62805 1-486;1-194;2-130;2-126;2-136;2-103, ||H2B T115C;H3.1 C96S;C110A); assay: EMSA; histone H1.0 pre-bound (chromatosome); 20 mM HEPES pH 7.5, 75 mM NaCl, 125 mM KCl, 50 uM EDTA, 2.5 mM beta-mercaptoethanol, 5% glycerol, BSA, 1.58 uM 47 bp competitor DNA (nucleosome assays); absent w
[4] = target: HisMBP-MeCP2 205-257 (DIR);histone octamer (Homo sapiens;, UniProt P51608;P0C0S8;P62807;P68431;P62805 205-257;2-130;2-126;2-136;2-103, |H2B T115C;H3.1 C96S;C110A); assay: EMSA; 20 mM HEPES pH 7.5, 75 mM NaCl, 125 mM KCl, 50 uM EDTA, 2.5 mM beta-mercaptoethanol, 5% glycerol, BSA, 1.58 uM 47 bp competitor DNA (nucleosome assays); absent w
[5] = target: MeCP2 MBD;histone octamer (Homo sapiens;, UniProt P51608;P0C0S8;P62807;P68431;P62805 77-167;2-130;2-126;2-136;2-103, |H2B T115C;H3.1 C96S;C110A); assay: as above
[6] = target: MeCP2 AT-DIRmut;histone octamer (Homo sapiens;, UniProt P51608;P0C0S8;P62807;P68431;P62805 1-486;2-130;2-126;2-136;2-103, R188G;R190G;K254N;K256N;R268Q|H2B T115C;H3.1 C96S;C110A); assay: as above
[7] = target: HisMBP-MeCP2 162-309;histone octamer (Homo sapiens;, UniProt P51608;P0C0S8;P62807;P68431;P62805 162-309;2-130;2-126;2-136;2-103, |H2B T115C;H3.1 C96S;C110A); assay: as above
[8] = target: MeCP2 R133G;histone octamer (Homo sapiens;, UniProt P51608;P0C0S8;P62807;P68431;P62805 1-486;2-130;2-126;2-136;2-103, R133G|H2B T115C;H3.1 C96S;C110A); assay: as above
[9] = target: HisMBP-MeCP2 162-309;histone octamer, acidic patch mutant (Homo sapiens;Homo sapiens, UniProt P51608;P0C0S8;P62807;P68431;P62805 162-309;2-130;2-126;2-136;2-103, |H2A E61A;E91A;E92A;H2B E113A;H3.1 C96S;C110A); assay: EMSA; acidic patch mutant histone octamer; 20 mM HEPES pH 7.5, 75 mM NaCl, 125 mM KCl, 50 uM EDTA, 2.5 mM beta-mercaptoethanol, 5% glycerol, BSA, 1.58 uM 47 bp competitor DNA (nucleosome assays); absent w
[10] = target: HisMBP-MeCP2 205-257 (DIR) (Homo sapiens, UniProt P51608 205-257); assay: EMSA; 20 mM HEPES pH 7.5, 75 mM NaCl, 125 mM KCl, 50 uM EDTA, 2.5 mM beta-mercaptoethanol, 5% glycerol, BSA, 1.58 uM 47 bp competitor DNA (nucleosome assays; absent with free DNA), room temperature 30 min; conditions: protein: recombinant; tags: His-MBP; label: 5' 6-FAM; blunt
[11] = target: HisMBP-MeCP2 162-309;histone octamer (Homo sapiens;Homo sapiens, UniProt P51608;P0C0S8;P62807;P68431;P62805 162-309;2-130;2-126;2-136;2-103, |H3.1 C96S;C110A); assay: EMSA; 20 mM HEPES pH 7.5, 75 mM NaCl, 125 mM KCl, 50 uM EDTA, 2.5 mM beta-mercaptoethanol, 5% glycerol, BSA, 1.58 uM 47 bp competitor DNA (nucleosome assays); absent w

Binder | Kd [1] [nM] | Kd [2] [nM] | Kd [4] [nM] | Kd [5] [nM] | Kd [6] [nM] | Kd [7] [nM] | Kd [8] [nM] | Kd [9] [nM] | also measured
N603-30 nucleosome 91 meCpA (nucleosome, asymmetric meCpA at 91) DNA 1: GAGCCACAAAATCACCGACGCTCACGGGTGCCCAGTTCGCGCGCCCACCTACCGTGTGAAGTCGTCACTCGGGCTTCTAAGTACGCTTAGCGCACGGTAGAGCGCAATCCAAGGCTAACCACCGTGCATCGATGTTGAAAGAGGCCCTCCGTCCTTATTACTTCAAGTCCCTGGGGT DNA 2: ACCCCAGGGACTTGAAGTAATAAGGACGGAGGGCCTCTTTCAACATCGATGCACGGTGGTTAGCCTTGGATTGCGCTCTACCGTGCGCTAAGCGTACTTAGAAGCCCGAGTGACGACTTCACACGGTAGGTGGGCGCGCGAACTGGGCACCCGTGAGCGTCGGTGATTTTGTGGCTC | 61.4 | 47 |  |  |  |  |  |  | 
N603-30 nucleosome (single 30 bp linker) (nucleosome) DNA 1: GAGCCACAAAATCACCGACGCTCACGGGTGCCCAGTTCGCGCGCCCACCTACCGTGTGAAGTCGTCACTCGGGCTTCTAAGTACGCTTAGCGCACGGTAGAGCGCAATCCAAGGCTAACCACCGTGCATCGATGTTGAAAGAGGCCCTCCGTCCTTATTACTTCAAGTCCCTGGGGT DNA 2: ACCCCAGGGACTTGAAGTAATAAGGACGGAGGGCCTCTTTCAACATCGATGCACGGTGGTTAGCCTTGGATTGCGCTCTACCGTGCGCTAAGCGTACTTAGAAGCCCGAGTGACGACTTCACACGGTAGGTGGGCGCGCGAACTGGGCACCCGTGAGCGTCGGTGATTTTGTGGCTC | 102 | 86.9 |  |  |  |  |  |  | 
15-N601-15 nucleosome unmethylated (nucleosome) DNA 1: ATGGAACACATTGCACAGGATGTATATATCTGACACGTGCCTGGAGACTAGGGAGTAATCCCCTTGGCGGTTAAAACGCGGGGGACAGCGCGTACGTGCGTTTAAGCGGTGCTAGAGCTGTCTACGACCAATTGAGCGGCCTCGGCACCGGGATTCTCCAGGGCGGCCGCGTATT DNA 2: AATACGCGGCCGCCCTGGAGAATCCCGGTGCCGAGGCCGCTCAATTGGTCGTAGACAGCTCTAGCACCGCTTAAACGCACGTACGCGCTGTCCCCCGCGTTTTAACCGCCAAGGGGATTACTCCCTAGTCTCCAGGCACGTGTCAGATATATACATCCTGTGCAATGTGTTCCAT | 220 |  | 581 | 1000 | 85.2 | 240 | 596 | 217 | binding result [3]: no binding
20 bp dsDNA (dsDNA) DNA 1: AATACGCGGCCGCCCTGGAG DNA 2: CTCCAGGGCGGCCGCGTATT |  |  |  |  |  |  |  |  | Kd [10]: 814 ± 50.1 nM
16-N603-30 nucleosome unmethylated (nucleosome) DNA 1: GAGCCACAAAATCACCGACGCTCACGGGTGCCCAGTTCGCGCGCCCACCTACCGTGTGAAGTCGTCACTCGGGCTTCTAAGTACGCTTAGCGCACGGTAGAGCGCAATCCAAGGCTAACCACCGTGCATCGATGTTGAAAGAGGCCCTCCGTCCTTATTACTTCAAGTCCCTGGGGTACCCGTTTCACTGCCA DNA 2: TGGCAGTGAAACGGGTACCCCAGGGACTTGAAGTAATAAGGACGGAGGGCCTCTTTCAACATCGATGCACGGTGGTTAGCCTTGGATTGCGCTCTACCGTGCGCTAAGCGTACTTAGAAGCCCGAGTGACGACTTCACACGGTAGGTGGGCGCGCGAACTGGGCACCCGTGAGCGTCGGTGATTTTGTGGCTC | 94.9 |  | 298 | 716 | 41.5 | 94.6 | 188 |  | 
N601 nucleosome core particle unmethylated (nucleosome) DNA 1: CAGGATGTATATATCTGACACGTGCCTGGAGACTAGGGAGTAATCCCCTTGGCGGTTAAAACGCGGGGGACAGCGCGTACGTGCGTTTAAGCGGTGCTAGAGCTGTCTACGACCAATTGAGCGGCCTCGGCACCGGGATTCTCCA DNA 2: TGGAGAATCCCGGTGCCGAGGCCGCTCAATTGGTCGTAGACAGCTCTAGCACCGCTTAAACGCACGTACGCGCTGTCCCCCGCGTTTTAACCGCCAAGGGGATTACTCCCTAGTCTCCAGGCACGTGTCAGATATATACATCCTG |  |  | 1970 |  |  | 734 |  | 1830 | binding result [1]: no binding; Kd [11]: 786 nM
